Experimental findings from IntAct's records for PubMed 12897212 are described below.

B1: Melanophilin (Homo sapiens), Q9BV36 (parent)
chain: MGKKLDLSKLTDEEAQHVLEVVQRDFDLRRKEEERLEALKGKIKKESSKRELLSDTAHLNETHCARCLQPYQLLVNSKRQCLECGLFTCKSCGRVHPEEQGWICDPCHLARVVKIGSLEWYYEHVKARFKRFGSAKVIRSLHGRLQGGAGPELISEERSGDSDQTDEDGEPGSEAQAQAQPFGSKKKRLLSVHDFDFEGDSDDSTQPQGHSLHLSSVPEARDSPQSLTDESCSEKAAPHKAEGLEEADTGASGCHSHPEEQPTSISPSRHGALAELCPPGGSHRMALGTAAALGSNVIRNEQLPLQYLADVDTSDEESIRAHVMASHHSKRRGRASSESQIFELNKHISAVECLLTYLENTVVPPLAKGLGAGVRTEADVEEEALRRKLEELTSNVSDQETSSEEEEAKDEKAEPNRDKSVGPLPQADPEVGTAAHQTNRQEKSPQDPGDPVQYNRTTDEELSELEDRVAVTASEVQQAESEVSDIESRIAALRAAGLTVKPSGKPRRKSNLPIFLPRVAGKLGKRPEDPNADPSSEAKAMAVPYLLRRKFSNSLKSQGKDDDSFDRKSVYRGSLTQRNPNARKGMASHTFAKPVVAHQS

Variants of B1 are the subject of the first assay. The settings on record: with rb27a_human RAB27A.
As to MGKKLDLSKLTDEEAQHVLEVVQRDFDLRRKEEEKLEALKGKIKKESSKRELLSDTAHLNETHCARCLQPYQLLVNSKRQCLECGLFTCKSCGRVHPEEQGWICDPCHLARVVKIGSLEWYYEHVKARFKRFGSAKVIRSLHGRLQGGAGPELISEERSGDSDQTDEDGEPGSEAQAQAQPFGSKKKRLLSVHDFDFEGDSDDSTQPQGHSLHLSSVPEARDSPQSLTDESCSEKAAPHKAEGLEEADTGASGCHSHPEEQPTSISPSRHGALAELCPPGGSHRMALGTAAALGSNVIRNEQLPLQYLADVDTSDEESIRAHVMASHHSKRRGRASSESQIFELNKHISAVECLLTYLENTVVPPLAKGLGAGVRTEADVEEEALRRKLEELTSNVSDQETSSEEEEAKDEKAEPNRDKSVGPLPQADPEVGTAAHQTNRQEKSPQDPGDPVQYNRTTDEELSELEDRVAVTASEVQQAESEVSDIESRIAALRAAGLTVKPSGKPRRKSNLPIFLPRVAGKLGKRPEDPNADPSSEAKAMAVPYLLRRKFSNSLKSQGKDDDSFDRKSVYRGSLTQRNPNARKGMASHTFAKPVVAHQS [R35K], the “effect of a mutation on the interaction” value was “disrupting interaction”. The same measure, in the same setting: the entry for MGKKLDLSKLTDEEAQHVLEVVQRDFDLRRKEEEVLEALKGKIKKESSKRELLSDTAHLNETHCARCLQPYQLLVNSKRQCLECGLFTCKSCGRVHPEEQGWICDPCHLARVVKIGSLEWYYEHVKARFKRFGSAKVIRSLHGRLQGGAGPELISEERSGDSDQTDEDGEPGSEAQAQAQPFGSKKKRLLSVHDFDFEGDSDDSTQPQGHSLHLSSVPEARDSPQSLTDESCSEKAAPHKAEGLEEADTGASGCHSHPEEQPTSISPSRHGALAELCPPGGSHRMALGTAAALGSNVIRNEQLPLQYLADVDTSDEESIRAHVMASHHSKRRGRASSESQIFELNKHISAVECLLTYLENTVVPPLAKGLGAGVRTEADVEEEALRRKLEELTSNVSDQETSSEEEEAKDEKAEPNRDKSVGPLPQADPEVGTAAHQTNRQEKSPQDPGDPVQYNRTTDEELSELEDRVAVTASEVQQAESEVSDIESRIAALRAAGLTVKPSGKPRRKSNLPIFLPRVAGKLGKRPEDPNADPSSEAKAMAVPYLLRRKFSNSLKSQGKDDDSFDRKSVYRGSLTQRNPNARKGMASHTFAKPVVAHQS [R35V] is “disrupting interaction”; for MGKKLDLSKLTDEEAQHVLEVVQRDFDLRRKEEEFLEALKGKIKKESSKRELLSDTAHLNETHCARCLQPYQLLVNSKRQCLECGLFTCKSCGRVHPEEQGWICDPCHLARVVKIGSLEWYYEHVKARFKRFGSAKVIRSLHGRLQGGAGPELISEERSGDSDQTDEDGEPGSEAQAQAQPFGSKKKRLLSVHDFDFEGDSDDSTQPQGHSLHLSSVPEARDSPQSLTDESCSEKAAPHKAEGLEEADTGASGCHSHPEEQPTSISPSRHGALAELCPPGGSHRMALGTAAALGSNVIRNEQLPLQYLADVDTSDEESIRAHVMASHHSKRRGRASSESQIFELNKHISAVECLLTYLENTVVPPLAKGLGAGVRTEADVEEEALRRKLEELTSNVSDQETSSEEEEAKDEKAEPNRDKSVGPLPQADPEVGTAAHQTNRQEKSPQDPGDPVQYNRTTDEELSELEDRVAVTASEVQQAESEVSDIESRIAALRAAGLTVKPSGKPRRKSNLPIFLPRVAGKLGKRPEDPNADPSSEAKAMAVPYLLRRKFSNSLKSQGKDDDSFDRKSVYRGSLTQRNPNARKGMASHTFAKPVVAHQS [R35F] it is “disrupting interaction”.

Variants of B1 are the subject of the next assay. The conditions noted are these: with rb27a_human RAB27A. This is another data set of the same source.
Consider MGKKLDLSKLTDEEAQHVLEVVQRDFDLRRKEEEWLEALKGKIKKESSKRELLSDTAHLNETHCARCLQPYQLLVNSKRQCLECGLFTCKSCGRVHPEEQGWICDPCHLARVVKIGSLEWYYEHVKARFKRFGSAKVIRSLHGRLQGGAGPELISEERSGDSDQTDEDGEPGSEAQAQAQPFGSKKKRLLSVHDFDFEGDSDDSTQPQGHSLHLSSVPEARDSPQSLTDESCSEKAAPHKAEGLEEADTGASGCHSHPEEQPTSISPSRHGALAELCPPGGSHRMALGTAAALGSNVIRNEQLPLQYLADVDTSDEESIRAHVMASHHSKRRGRASSESQIFELNKHISAVECLLTYLENTVVPPLAKGLGAGVRTEADVEEEALRRKLEELTSNVSDQETSSEEEEAKDEKAEPNRDKSVGPLPQADPEVGTAAHQTNRQEKSPQDPGDPVQYNRTTDEELSELEDRVAVTASEVQQAESEVSDIESRIAALRAAGLTVKPSGKPRRKSNLPIFLPRVAGKLGKRPEDPNADPSSEAKAMAVPYLLRRKFSNSLKSQGKDDDSFDRKSVYRGSLTQRNPNARKGMASHTFAKPVVAHQS [R35W], for which the “effect of a mutation on the interaction” value was “disrupting interaction”.
